The text below walks through data of patent publication US20220235103A1 (Molecular Partners, published 2022).

Read-outs that look alike come from different tables or passages of the source.

In one assay the target is bio-RBD Fc Acro (SARS-CoV-2). In words: SPR, single trace.
The target in assay [1] is T1, bio-S ecto Sino (SARS-CoV-2, UniProt P0DTC2 16-1213).
The target in assay [2] is T1, bio-S ecto Sino. The source holds these as a separate data set.
Assay [3] concerns the target T1, bio-S ecto Sino. This is another data set of the same source.
Assay [4] deals with T2, S ecto U (SARS-CoV-2, UniProt P0DTC2 16-1213).
Assay [5] has as its target T2, S ecto U. In words: SPR, ProteOn XPR36, fitted curves (FIG. 9c). In general terms: SPR reads the build-up and loss of mass on a sensor chip optically.
Assay [6] has as its target T3, SARS-CoV-2 (COVID-19) S protein RBD (cat. SPD-C5255, lot. BV3539b-203FF1-203K) (SARS-CoV-2, UniProt P0DTC2 319-537).
Assay [7] concerns the target T4, bio-S1 Acro (SARS-CoV-2, UniProt P0DTC2 16-685). In words: SPR.
Assay [8] concerns the target T3, SARS-CoV-2 (COVID-19) S protein RBD …. The source holds these as a separate data set.
Assay [9] deals with T1, bio-S ecto Sino. The assay is described as follows: single trace.
In assay [10] the target is T4, bio-S1 Acro. In words: SPR, single trace.

B1: vS07_23E04 (designed binder)
chain: MRGSHHHHHHGSDLGKKLLQAARAGQLDEVRELLKAGADVNAKDQEGITPLHVAAHQGHLEIVEVLLKAGADVNAKDVWGRTPLHLAAWRGHLEIVEVLLKAGADVNAKDHAGATPLHAAALSGHLEIVEVLLKAGADVNAQDKSGKTPADLAARAGHQDIAEVLQKAA
notes: also called R3c
By Kd is commonly meant the constant that tells how readily two partners part at equilibrium. A high value points to weaker binding. As a reminder, the koff is a measure of how fast the partners let go of each other. A low value points to a long-lived complex. As a reminder, the kon is the rate constant with which the complex forms. Regarding B1, the binding result with bio-RBD Fc Acro is recorded as “binds”. Moreover, the Kd with bio-S ecto Sino [1] is 90 pM. Besides, in the assay with bio-S ecto Sino [2], the koff is 0.000234 s⁻¹ and the kon came to 2.59e+06 M⁻¹ s⁻¹.

B2: vS07_12C06 (designed binder)
chain: MRGSHHHHHHGSDLGKKLLQAARAGQLDEVRELLKAGADVNAKDREGKTPLHVAAQEGHLEIVEVLLKAGADVNAKDVWGRTPLHLAAWIGHLEIVEVLLKAGADVNAKDVSGATPLHAAALHGHLEIVEVLLNAGADVNAQDKSGKTPADLAARAGHQDIAEVLQKAA
notes: also called R1b; Rb1
In the assay with bio-S ecto Sino [3], B2 gave a koff of 2.64e-05 s⁻¹ and an on-rate constant (kon) of 1.26e+06 M⁻¹ s⁻¹. The binding result with bio-RBD Fc Acro is reported as “binds”. In the assay with bio-S ecto Sino [1], the Kd amounted to 21 pM.

B3: vS07_29B10 (designed binder)
chain: MRGSHHHHHHGSDLGKKLLQAARAGQLDEVRELLKAGADVNAKDREGITPLHLAAQHGHLEIVEVLLKAGADVNAKDVWGRTPLHLAAWQGHLEIVEVLLKAGADVNAKDLAGATPLHVAALYGHLEIVEVLLKAGADVNAQDKSGKTPADLAARAGHQDIAEVLQKAA
notes: also called R3b
Consider B3, for which, in the assay with bio-RBD Fc Acro, the binding result is “binds”. For the same molecule, the dissociation constant (Kd) with bio-S ecto Sino [1] stood at 81 pM. In the assay with bio-S ecto Sino [2], the koff amounted to 0.000148 s⁻¹ and the kon was 1.82e+06 M⁻¹ s⁻¹.

B4: vS07_06F12 (designed binder)
chain: MRGSHHHHHHGSDLGKKLLQAARAGQLDEVRELLKAGADVNAKDREGWTPLHLAAHQGHLEIVEVLLKAGADVNAKDVFGRTPLHLAAWVGHLEIVEVLLKAGADVNAKDVSGATPLHPAAIYGHLEIVEVLLKAGADVNAQDKSGKTPADLAARAGHQDIAEVLQKAA
notes: also called R1a
B4: in the assay with bio-S ecto Sino [3], the koff worked out at 0.000243 s⁻¹ and the on-rate constant (kon) amounted to 963000 M⁻¹ s⁻¹. Further, the binding result with bio-RBD Fc Acro was “binds”. Binding in the assay with bio-S ecto Sino [1] was put at a Kd of 250 pM.

B5: vS07_22E12 (designed binder)
chain: MRGSHHHHHHGSDLGKKLLQAARAGQLDEVRELLKAGADVNAKDKIGVTPLHIAAEVGHLEIVEVLLKAGADVNAKDVWGRTPLHLAAWSGHLEIVEVLVKAGADVNAKDIAGATPLHAAALFGHLEIVEVLLKVGADVNAQDKSGKTPADLAARAGHQDIAEVLQKAA
notes: also called R3a
As for B5, the binding result with bio-RBD Fc Acro is on record as “binds”. For the same molecule, the affinity in the assay with bio-S ecto Sino [1], expressed as Kd, was 240 pM. In the assay with bio-S ecto Sino [2], this molecule gave a koff of 0.000308 s⁻¹ and a kon of 1.3e+06 M⁻¹ s⁻¹.

B6: vS07_14G03 (designed binder)
chain: MRGSHHHHHHGSDLGQKLLHAAQYGQDDEVRILLAAGADVNAKDKQGNTPLHIAAFHGHLEIVEVLLKAGADVNAKDQWGLTPLHLAAAWGHLEIVEVLLKAGADVNAQDNYGQTPADLAAESGHEDIAEVLQKAA
notes: also called S2a
In the assay with S ecto U [4], B6 returned a koff of 0.00352 s⁻¹ and a kon of 4.49e+06 M⁻¹ s⁻¹. Further, binding with S ecto U [5] was put at a Kd of 790 pM.

B7: ALE030 (designed binder)
chain: MRGSHHHHHHGSDLGKKLLEAARAGQDDEVRELLKAGADVNAKDYFSHTPLHLAARNGHLKIVEVLLKAGADVNAKDFAGKTPLHLAANEGHLEIVEVLLKAGADVNAQDIFGKTPADIAADAGHEDIAEVLQKAAGSPTPTPTTPTPTPTTPTPTPTGSDLGKKLLEAARAGQDDEVRELLKAGADVNAKDYFSHTPLHLAARNGHLKIVEVLLKAGADVNAKDFAGKTPLHLAANEGHLEIVEVLLKAGADVNAQDIFGKTPADIAADAGHEDIAEVLQKAAGSPTPTPTTPTPTPTTPTPTPTGSDLGKKLLQAARAGQLDEVRELLKAGADVNAKDREGITPLHLAAQHGHLEIVEVLLKAGADVNAKDVWGRTPLHLAAWQGHLEIVEVLLKAGADVNAKDLAGATPLHVAALYGHLEIVEVLLKAGADVNAQDKSGKTPADLAARAGHQDIAEVLQKAAGSPTPTPTTPTPTPTTPTPTPTGSDLGNKLLDAAWVGQDDEVRILLAAGADVNAKDWQGETPLHLAATKGHLEIVEVLLKAGADVNAKDVVGYTPLHVAASQGHLEIVEVLLKAGADVNAQDVHGYTPADLAAQAGHEDIAEVLQKAAGSPTPTPTTPTPTPTTPTPTPTGSDLGKKLLQAARAGQLDEVRELLKAGADVNAKDREGKTPLHVAAQEGHLEIVEVLLKAGADVNAKDVWGRTPLHLAAWIGHLEIVEVLLKAGADVNAKDVSGATPLHAAALHGHLEIVEVLLNAGADVNAQDKSGKTPADLAARAGHQDIAEVLQKAA
Consider B7, for which, in [6], the affinity, expressed as Kd, was 0.142 pM; the koff came out at 1.15e-07 s⁻¹; the kon amounted to 810000 M⁻¹ s⁻¹.

B8: vS07_08F10v47 (designed binder)
chain: MRGSHHHHHHGSDLGKKLLLAARAGQLDEVRILLKAGADVNAKDVFGQTPLHTAAVAGHLEIVEVLLKAGADVNAKDKVGYTPLHLAAQSGHLEIVEVLLKAGADVNAKDVVGVTPADLAAFEGHQDIAEVLQKAA
On to B8, for which the binding result with bio-S1 Acro [7] is reported as “binds”.

B9: ALE033 (designed binder)
chain: MRGSHHHHHHGSDLGKKLLEAARAGQDDEVRELLKAGADVNAKDYFSHTPLHLAARNGHLKIVEVLLKAGADVNAKDFAGKTPLHLAANEGHLEIVEVLLKAGADVNAQDIFGKTPADIAADAGHEDIAEVLQKAAGSPTPTPTTPTPTPTTPTPTPTGSDLGKKLLEAARAGQDDEVRELLKAGADVNAKDYFSHTPLHLAARNGHLKIVEVLLKAGADVNAKDFAGKTPLHLAANEGHLEIVEVLLKAGADVNAQDIFGKTPADIAADAGHEDIAEVLQKAAGSPTPTPTTPTPTPTTPTPTPTGSDLGKKLLQAARAGQLDEVRELLKAGADVNAKDREGITPLHLAAQHGHLEIVEVLLKAGADVNAKDVWGRTPLHLAAWQGHLEIVEVLLKAGADVNAKDLAGATPLHVAALYGHLEIVEVLLKAGADVNAQDKSGKTPADLAARAGHQDIAEVLQKAAGSPTPTPTTPTPTPTTPTPTPTGSDLGKKLLQAARAGQLDEVRELLKAGADVNAKDREGKTPLHVAAQEGHLEIVEVLLKAGADVNAKDVWGRTPLHLAAWIGHLEIVEVLLKAGADVNAKDVSGATPLHAAALHGHLEIVEVLLNAGADVNAQDKSGKTPADLAARAGHQDIAEVLQKAAGSPTPTPTTPTPTPTTPTPTPTGSDLGKKLLQAARAGQLDEVRELLKAGADVNAKDREGITPLHLAAQHGHLEIVEVLLKAGADVNAKDVWGRTPLHLAAWQGHLEIVEVLLKAGADVNAKDLAGATPLHVAALYGHLEIVEVLLKAGADVNAQDKSGKTPADLAARAGHQDIAEVLQKAA
In turn, B9 gave a kon in assay [8] of 1.54e+06 M⁻¹ s⁻¹.

B10: vS07_26C03 (designed binder)
chain: MRGSHHHHHHGSDLGWKLLWAAQVGQDDEVRILLAAGADVNAKDDLGWTPLHIAAWVGHLEIVEVLLKAGADVNAKDFTGRTPLHHAATEGHLEIVKVLLKAGADVNAQDDVGHTPADLAALWGHEDIAEVLQKAA
notes: also called RN2
As to B10, in the assay with bio-RBD Fc Acro, the binding result is “binds”. In the assay with bio-S ecto Sino [1], this molecule had a Kd of 23000 pM.

B11: vS07_07F02 (designed binder)
chain: MRGSHHHHHHGSDLGLKLLTAAKQGQDDEVRILLAAGADVNAKDYRGLTPLHYAAAIGHLEIVEVLLKAGADVNAKDQYGATPLHVAAYIGHLEIVEVLLKAGADVNAQDFSGSTPADLAAEEGHEDIAEVLQKAA
notes: also called RN1
For B11, in the assay with bio-RBD Fc Acro, the binding result was “binds”. Also, the Kd in the assay with bio-S ecto Sino [9] was found to be 14000 pM.

B12: vS07_19G10 (designed binder)
chain: MRGSHHHHHHGSDLGNKLLDAAWVGQDDEVRILLAAGADVNAKDWQGETPLHLAATKGHLEIVEVLLKAGADVNAKDVVGYTPLHVAASQGHLEIVEVLLKAGADVNAQDVHGYTPADLAAQAGHEDIAEVLQKAA
notes: also called R2a
In the assay with bio-S ecto Sino [3], B12 yielded a koff of 0.000179 s⁻¹ and an association rate constant (kon) of 693000 M⁻¹ s⁻¹. Also, the binding result in the assay with bio-RBD Fc Acro was “binds”. Further, in the assay with bio-S ecto Sino [1], binding was characterised by a dissociation constant (Kd) of 260 pM.

B13: vS07_08F10 (designed binder)
chain: MRGSHHHHHHGSDLGHKLLLAAQAGQDDEVRILLAAGADVNAKDVFGQTPLHVAAVAGHLEIVEVLLKAGADVNAKDSIGYTPLHHAARVGHLEIVEVLLKAGADVNAQDWIGITPADLAAFEGHEDIAEVLQKAA
notes: also called S1a
B13: the koff with S ecto U [4] worked out at 0.00086 s⁻¹. In addition, in the assay with S ecto U [4], the kon was 695000 M⁻¹ s⁻¹. The Kd was found to be 20000 pM with bio-S1 Acro [10] and 1200 pM with S ecto U [5].

B14: vS07_08F10v27 (designed binder)
chain: MRGSHHHHHHGSDLGKKLLLAARAGQLDEVRILLKAGADVNAKDVFGQTPLHVAAVAGHLEIVEVLLKAGADVNAKDSIGYTPLHHAARVGHLEIVEVLLKAGADVNAKDWIGITPADLAAFEGHQDIAEVLQKAA
For B14, the binding result with bio-S1 Acro [7] was “binds”.
